Source: patent US20230192875A1 (KUMHO HT, published 2023)
Residue numbers refer to the chain shown, from its start.

T1: recombinant antigen human CD40L (Recombinant Human sCD40 Ligand; Peprotech, Cat. No.: 310-02) (human, UniProt P29965 113-261)
T1 construct: Soluble recombinant CD40L; also called rCD40L; recombinant antigen CD40L
T1 chain: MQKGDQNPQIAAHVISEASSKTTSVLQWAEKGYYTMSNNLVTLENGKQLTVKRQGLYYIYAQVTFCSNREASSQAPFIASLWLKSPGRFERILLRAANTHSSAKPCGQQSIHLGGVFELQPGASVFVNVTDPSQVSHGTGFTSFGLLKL

B1: anti-CD40 mouse monoclonal antibody 5C2 (antibody, V domains shown)
VH: QVQMLQSGTELVRPGTSVKVSCKASGYGFTNYLIEWVKQRPGQGLEWIGVINPGYGGVNYNEKFKGKAILTADKSSSTAYMHLTSLTSDDSAVYFCARGGSGFAFWGQGTLVTVST
VL: DIQMTQTTSSLSASLGQRVTISCRASQDISNHLNWYQQKPNGTVRLLISSTSRLHSGVPSRFSGSGSGTDYSLTISNLEQEDIATYFCQQGNTLPWTFGGGTKLEIK
notes: also called 5C2 antibody (mouse antibody); antibody of hybridoma KCLRF-BP-00381
B2: humanized 5C2 antibody VH5VL1 (a combination of heavy chain VH5 and light chain VL1) (antibody, human IgG2, V domains shown)
VH: EVQLVQSGAEVKKPGESVKISCKASGYGFTNYLIEWVRQMPGKGLEWIGVINPGYGGVNYNEKFKGQATLSADKSISTAYLQLSSLKASDTAVYFCARGGSGFAFWGQGTLVTVSS
VL: DIQMTQSPSSLSASVGDRVTITCRASQDISNHLNWYQQKPGKAVKLLISSTSRLHSGVPSRFSGSGSGTDYTLTISSLQPEDFATYFCQQGNTLPWTFGQGTKVEIK
notes: Tested as CHO culture supernatant
B3: humanized 5C2 antibody VH1VL2 (a combination of heavy chain VH1 and light chain VL2) (antibody, human IgG2, V domains shown)
VH: QVQLVQSGAEVKKPGASVKVSCKASGYGFTNYLIEWVRQAPGQGLEWIGVINPGYGGVNYNEKFKGRATLTADKSISTAYMELSRLRSDDTAVYFCARGGSGFAFWGQGTLVTVSS
VL: EIVMTQSPATLSVSPGERATLSCRASQDISNHLNWYQQKPGQAVRLLISSTSRLHSGIPARFSGSGSGTEYTLTISSLQSEDFAVYFCQQGNTLPWTFGQGTKVEIK
notes: as for B2
B4: humanized 5C2 antibody VH2VL2 (a combination of heavy chain VH2 and light chain VL2) (antibody, human IgG2, V domains shown)
VH: B3 VH with A68V
VL: B3 VL
notes: as for B2
B5: humanized 5C2 antibody VH3VL2 (a combination of heavy chain VH3 and light chain VL2) (antibody, human IgG2, V domains shown)
VH: B3 VH with A16S, I76T, R85S, D89E
VL: B3 VL
notes: as for B2
B6: humanized 5C2 antibody VH5VL2 (a combination of heavy chain VH5 and light chain VL2) (antibody, human IgG2, V domains shown)
VH: B2 VH
VL: B3 VL
notes: as for B2
B7: anti-CD40 5C2 chimeric antibody comprising human IgG1 constant region (antibody)
heavy: not shown
light: DIQMTQTTSSLSASLGQRVTISCRASQDISNHLNWYQQKPNGTVRLLISSTSRLHSGVPSRFSGSGSGTDYSLTISNLEQEDIATYFCQQGNTLPWTFGGGTKLEIKRTVAAPSVFIFPPSDEQLKSGTASVVCLLNNFYPREAKVQWKVDNALQSGNSQESVTEQDSKDSTYSLSSTLTLSKADYEKHKVYACEVTHQGLSSPVTKSFNRGEC
notes: expressed in ExpiCHO and purified on Protein A; also called Chimeric IgG1; IgG1 chimeric antibody
B8: anti-CD40 5C2 chimeric antibody comprising human IgG2 constant region (antibody)
heavy: QVQMLQSGTELVRPGTSVKVSCKASGYGFTNYLIEWVKQRPGQGLEWIGVINPGYGGVNYNEKFKGKAILTADKSSSTAYMHLTSLTSDDSAVYFCARGGSGFAFWGQGTLVTVSTASTKGPSVFPLAPCSRSTSESTAALGCLVKDYFPEPVTVSWNSGALTSGVHTFPAVLQSSGLYSLSSVVTVPSSNFGTQTYTCNVDHKPSNTKVDKTVERKCCVECPPCPAPPVAGPSVFLFPPKPKDTLMISRTPEVTCVVVDVSHEDPEVQFNWYVDGVEVHNAKTKPREEQFNSTFRVVSVLTVVHQDWLNGKEYKCKVSNKGLPAPIEKTISKTKGQPREPQVYTLPPSREEMTKNQVSLTCLVKGFYPSDIAVEWESNGQPENNYKTTPPMLDSDGSFFLYSKLTVDKSRWQQGNVFSCSVMHEALHNHYTQKSLSLSPGK
light: B7 light
notes: also called Chimeric IgG2; IgG2 chimeric antibody
B9: anti-CD40 5C2 chimeric antibody comprising human IgG4 constant region (antibody)
heavy: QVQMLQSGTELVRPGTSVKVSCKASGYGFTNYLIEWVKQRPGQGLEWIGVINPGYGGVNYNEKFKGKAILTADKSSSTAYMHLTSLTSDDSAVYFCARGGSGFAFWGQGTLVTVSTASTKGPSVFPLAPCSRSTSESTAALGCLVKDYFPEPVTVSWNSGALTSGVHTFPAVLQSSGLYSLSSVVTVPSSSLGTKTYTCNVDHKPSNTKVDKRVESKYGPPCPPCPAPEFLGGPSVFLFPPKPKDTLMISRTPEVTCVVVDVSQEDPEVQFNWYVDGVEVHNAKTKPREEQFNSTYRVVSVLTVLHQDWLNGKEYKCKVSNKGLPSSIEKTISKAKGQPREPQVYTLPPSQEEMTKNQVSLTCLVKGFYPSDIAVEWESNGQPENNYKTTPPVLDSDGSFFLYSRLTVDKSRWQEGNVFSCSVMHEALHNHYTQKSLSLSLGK
light: B7 light
notes: also called Chimeric IgG4; IgG4 chimeric antibody
B10: humanized 5C2 antibody VH1VL1 (a combination of heavy chain VH1 and light chain VL1) (antibody, human IgG2, V domains shown)
VH: B3 VH
VL: B2 VL
notes: as for B2
B11: humanized 5C2 antibody VH2VL1 (a combination of heavy chain VH2 and light chain VL1) (antibody, human IgG2, V domains shown)
VH: B3 VH with A68V
VL: B2 VL
notes: as for B2
B12: humanized 5C2 antibody VH3VL1 (a combination of heavy chain VH3 and light chain VL1) (antibody, human IgG2, V domains shown)
VH: B3 VH with A16S, I76T, R85S, D89E
VL: B2 VL
notes: as for B2

What was measured:
[1] = target: T1, recombinant antigen human CD40L …; assay: ELISA, antigen coated at 1.0 µg/mL, antibody at 1.0 µg/mL, anti-mouse IgG-HRP
[2] = target: T2, recombinant human CD40 (R&D systems, Cat. No.: P25942) (human, UniProt P25942 21-193); assay: ELISA, coated CD40 100 ng/well, hybridoma culture supernatant
T2 construct: also called rCD40; human recombinant CD40
Description: Human recombinant CD40 (R&D systems, Cat. No.:P25942) was plated in an amount of 100.0 ng per well into a MaxiSorp ELISA plate and reacted at 37° C. for one hour for antibody coating, followed by blocking by incubation with 200 μL of 1× blocking solution (Sigma) per well at 37° C. for one hour.

[3] = target: T3, human CD40 expressed on Ramos cell line (ATCC CRL-1596) (human, UniProt P25942 21-277); assay: flow cytometry on Ramos cells, FITC-5C2 1.0 µg/mL, with or without preincubation with CD40L 15.0 µg/mL
T3 construct: whole, on cells; Endogenous CD40 on Ramos cells; also called CD40 on Ramos cells
Description: A solution of FITC Isomer I (Invitrogen, Cat. No.: F1906) at a concentration of 2.6 mg/mL in DMSO (Sigma-Aldrich, Cat. No.:276855) was added in an amount of 20.0 μL to each of the antibody solutions. After FITC conjugation by stirring at room temperature for 2 hours, the resulting antibody solutions were dialyzed against phosphate buffered saline to obtain FITC-labeled antibodies.
The cells were washed again with phosphate buffered saline and then subjected to fluorescent immunoassay using flow cytometry (Stratedigm, S1000EXi).

[4] = target: T2, recombinant human CD40 (R&D systems, …); assay: ELISA, coated rCD40 1.0 µg/mL, CHO culture supernatant
Description: Each of the humanized antibody cultures was assayed for reactivity for a recombinant antigen human CD40 (rCD40; R&D systems, Cat. No.: P25942) by ELISA. For this assay, a dilution of rCD40 at a concentration of 1.0 μg/mL in phosphate buffered saline was plated at a density of 100 μL/well into microplates and incubated at 37° C. for one hour to coat the microplates with the antigen which was then blocked by adding a 1× blocking solution (Sigma) in an amount of 200 μl per well and incubating at 37° C. for one hour.
Following one hour of incubation with 100 μL of each of the humanized anti-CD40 antibody cultures at 37° C., the microplates were washed three times with phosphate buffered saline. Treatment with the secondary antibody goat anti-human IgG F(ab′)2-HRP (Jackson Immunoresearch, Cat. No.: 109-035-006) at 37° C. for 30 min was followed by three rounds of washing with phosphate buffered saline. Then, TMB Single Solution (Life Technologies, Cat. No: 002023) was added in an amount of 100 μl per well and incubated at room temperature for 5-10 min in a dark place. Color development was stopped with 100 μL of 1.0 N sulfuric acid and absorbance at 450 nm was measured.

[5] = target: T4, recombinant antigen human CD40 (Sino Biological Inc., Cat. No.: 10774-H02H) (human, UniProt P25942 21-193); assay: ELISA (FIG. 2)
T4 construct: Bought antigen used in the ELISA of the chimeric antibodies
Description: A dilution of the recombinant antigen human CD40 (Sino Biological Inc., Cat. No.: 10774-H02H) at a concentration of 1.0 μg/mL in phosphate buffered saline was plated at 100 μL/well into microplates and incubated at 37° C. for one hour to coat the plates therewith. Then, a 1× blocking solution (Sigma) was added in an amount of 200 μL per well and incubated at 37° C. for one hour to block the antigen.
The dilutions were added in an amount of 100 μL/well, incubated at 37° C. for one hour and washed three times with phosphate buffered saline. The antibodies were treated with the secondary antibody goat anti-human IgG F(ab′)2-HRP (Jackson Immunoresearch, Cat. No.: 109-035-006) at 37° C. for 30 min and washed three times with phosphate buffered saline. After reaction with 100 μL of TMB Single Solution (Life Technologies, Cat. No: 002023) per well at room temperature for 4-10 min in a dark place, the color development was stopped with 100 μL of 1.0 N sulfuric acid and then absorbance at 450 nm was measured.

T4 sequence (P25942 21-193 limits assumed): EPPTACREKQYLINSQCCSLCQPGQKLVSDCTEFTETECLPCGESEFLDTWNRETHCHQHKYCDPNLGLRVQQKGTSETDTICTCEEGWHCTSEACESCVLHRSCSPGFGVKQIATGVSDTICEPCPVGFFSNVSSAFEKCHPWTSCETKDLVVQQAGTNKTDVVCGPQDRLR
T2 sequence (P25942 21-193 limits assumed, one chain of several): as the sequence (P25942 21-193 limits assumed) above
T3 sequence (P25942 21-277): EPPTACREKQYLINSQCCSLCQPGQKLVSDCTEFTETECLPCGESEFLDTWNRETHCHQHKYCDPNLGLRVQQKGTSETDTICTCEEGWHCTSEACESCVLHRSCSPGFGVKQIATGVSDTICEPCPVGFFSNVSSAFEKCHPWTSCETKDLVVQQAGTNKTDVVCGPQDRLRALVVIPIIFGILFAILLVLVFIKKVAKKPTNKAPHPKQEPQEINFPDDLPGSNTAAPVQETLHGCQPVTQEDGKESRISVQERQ

Binder	binding result [4]	also measured
B1		binding result [1]: no binding (tested: 1.0 µg/mL); binding result [2]: binds; binding result [3]: binds
B2	binds	
B3	binds	
B4	binds	
B5	binds	
B6	binds	
B7		binding result [5]: binds
B8		binding result [5]: binds
B9		binding result [5]: binds
B10	binds	
B11	binds	
B12	binds	
